Measured values: patent US11547761B1, “Antibody adjuvant conjugates” (The Board of Trustees of the Leland Stanford Junior …, priority 2016, dated 2023)

System: human APCs (myeloid cells)
Test: APC-tumor co-culture / myeloid cell stimulation, surface markers by flow cytometry
Format: cell-based
Settings: 18 hours of stimulation
Text: Human antigen presenting cells (APCs) were negatively selected from human peripheral blood mononuclear cells obtained from healthy blood donors (Stanford Blood Center) by density gradient centrifugation using a RosetteSep Human Monocyte Enrichment Cocktail (Stem Cell Technologies) containing monoclonal antibodies against CD2, CD3, CD8, CD19, CD56, CD66b and CD235a. Immature APCs were subsequently purified to >97% purity via negative selection using an EasySep Human Monocyte Enrichment Kit without CD16 depletion containing monoclonal antibodies against CD2, CD3, CD19, CD20, CD56, CD66b, CD123 and CD235a.
Tumor cells were resuspended in PBS with 0.1% fetal bovine serum (FBS) at 1 to 10×10^6 cells/mL. Cells were subsequently incubated with 2 μM CFSE to yield a final concentration of 1 μM. […]
2×10^5 APCs were incubated with or without 6.5×10^5 autologous or allogeneic CFSE-labeled tumor cells in 96-well plates (Corning) containing IMDM medium (Gibco) supplemented with 10% fetal bovine serum, 100 U/mL penicillin, 100 μg/mL streptomycin, 2 mM L-glutamine, sodium pyruvate, non-essential amino acids, 50 μM 2-ME and, where indicated, various concentrations of anti-tumor antibody and the indicated adjuvants. Cells and cell-free supernatants were analyzed after 18 hours via flow cytometry. […]

B1: Nivolumab IgG1 immunoconjugate (conjugate, chains of the INN, looked up)
VH: QVQLVESGGGVVQPGRSLRLDCKASGITFSNSGMHWVRQAPGKGLEWVAVIWYDGSKRYYADSVKGRFTISRDNSKNTLFLQMNSLRAEDTAVYYCATNDDYWGQGTLVTVSS
VL: EIVLTQSPATLSLSPGERATLSCRASQSVSSYLAWYQQKPGQAPRLLIYDASNRATGIPARFSGSGSGTDFTLTISSLEPEDFAVYYCQQSSNWPRTFGQGTKVEIK
modifications: IgG1 adjuvant immunoconjugate
B1 was tested, and the “APC / myeloid / dendritic cell activation (overall)” value was “very potent”.
